Assay results taken from patent US20250145697A1 (WASHINGTON UNIVERSITY, published 2025).

T1: ApoE4 amino acids 1-132, expressed on yeast (human, UniProt P02649 19-150)
T1 construct: with myc tag, on yeast cells; range counts on the mature protein; also called up to helix 3; not shown: myc tag and yeast surface-display partner
T1 chain: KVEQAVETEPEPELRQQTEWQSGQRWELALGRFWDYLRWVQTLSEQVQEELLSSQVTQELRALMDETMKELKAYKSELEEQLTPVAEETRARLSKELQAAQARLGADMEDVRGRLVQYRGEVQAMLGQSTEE

T2: ApoE4 amino acids 24-125, expressed on yeast (human, UniProt P02649 42-143)
T2 construct: with myc tag, on yeast cells; range counts on the mature protein; also called helix1 + 2 + 3
T2 chain: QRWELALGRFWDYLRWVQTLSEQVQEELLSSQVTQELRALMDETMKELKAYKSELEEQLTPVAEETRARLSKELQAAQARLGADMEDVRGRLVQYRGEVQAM


How the values were obtained:
[1] = molecular target: T3, heat-induced aggregates of ApoE4 (human, UniProt P02649 19-317); experiment: ELISA: pellet of heat-aggregated ApoE4 coated at 0.5 ug/ml, antibody titrated, HRP goat anti-mouse IgG, OD650
T3 construct: mature; aggregated state of the recombinant protein; also called ApoE4 incubated at 40 C for 24 hr; heat-treated ApoE4
Method: (§1) The aggregated ApoE was induced by incubating ApoE at 1 mg/ml concentration at 40° C. for 24 hours. The aggregates then were recovered in the pellet fraction following ultracentrifugation at 186,000 g for 1 hour. For ELISA, the untreated ApoE or heat-induced aggregates of ApoE were coated directly to ELISA plates at 0.5 μg/ml overnight at 4° C. After three washes with PBS, the wells were blocked with 1% BSA-PBS for 1 hour at room temperature with shaking at 500 rpm. The blocked wells were washed once with PBS and subsequently loaded with antibodies at serial concentrations (starting at 100 nM with 5-fold dilutions thereafter). Bound antibodies were detected with HRP-labeled goat anti-mouse IgG (Jackson Immunoresearch) and visualized with TMB substrate at OD₆₅₀ (reaction stopped with BioFX stop solution).

[2] = molecular target: T4, recombinant alipidated human ApoE4 (human, UniProt P02649 19-317); experiment: direct ELISA on coated recombinant alipidated ApoE (0.5 ug/ml)
T4 construct: mature; full length recombinant protein made in E. coli or bought; biotinylated for SPR; position 112 is counted on the mature protein, not on the precursor entry; also called recApoE; non-lipidated ApoE4
Summary of the method: (§2)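 Plates coated overnight with full-length recombinant alipidated ApoE (0.5 μg/ml), from E. coli or a commercial source, were washed, blocked and incubated with anti-ApoE antibody. Binding was detected with goat anti-mouse IgG-HRP to generate dose-response curves.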

[3] = molecular target: T5, recombinant alipidated human ApoE3 (human, UniProt P02649 19-317); experiment: as above
T5 construct: mature; full length recombinant protein made in E. coli or bought
Summary of the method: as §2

[4] = molecular target: T6, heat-induced aggregates of ApoE3 (human, UniProt P02649 19-317); experiment: ELISA: pellet of heat-aggregated ApoE3 coated at 0.5 ug/ml, antibody titrated, HRP goat anti-mouse IgG, OD650
T6 construct: mature; aggregated state of the recombinant protein; also called heat treated ApoE3
Method: as §1

[5] = molecular target: T1, ApoE4 amino acids 1-132, expressed on …; experiment: yeast display of myc-tagged ApoE4 fragment, antibody staining
[6] = molecular target: T2, ApoE4 amino acids 24-125, expressed on …; experiment: as above
[7] = molecular target: T4, recombinant alipidated human ApoE4; experiment: SPR, biotinylated recombinant apoE4 captured on a streptavidin chip; column Kd (1/s)
Method: (§3) ELISA plates were coated with 0.5 μg/ml of recombinant apoE2 (square), apoE3 (open circle), or apoE4 (closed circle). Then different concentrations of (A) HJ151, (B) HJ153, (C) HJ154, or (D) HJ156 were loaded on the plates. Horse-radish peroxidase labeled goat anti-mouse secondary antibodies were used to detect binding. […] HJ151 is specific for ApoE4 and HJ156 binds only ApoE3 and ApoE4. FIG. 5E-H are graphs depicting surface plasmon resonance profiles for various antibodies. Anti-ApoE antibodies were serially diluted 3-fold (starting at 100 nM for HJ153 (E), and 1000 nM for HJ151 (F), and […] (G)) for detection of binding to biotinylated-recombinant apoE4 captured on a streptavidin chip. Samples were injected at a flow rate of 30 μl/minute. (H) Apparent KD values of HJ151, HJ153 and HJ156 were calculated based on the SPR experiment.
(§4) ELISA plates were coated with 0.5 μg/ml of recombinant apoE2, apoE3, or apoE4. Then different concentrations of HJ151 (FIG. 5A), HJ153 (FIG. 5B), HJ154 (FIG. 5C), or HJ156 (FIG. 5D) were loaded on the plates. Horse-radish peroxidase labeled goat anti-mouse secondary antibodies were used to detect binding. […] HJ151 is specific for ApoE4 and HJ156 binds only ApoE3 and ApoE4. Surface plasmon resonance profiles for various antibodies was also performed.

[8] = molecular target: T4, recombinant alipidated human ApoE4; experiment: SPR, biotinylated recombinant apoE4 captured on a streptavidin chip; column Ka (1/Ms)
Method: as §3, §4

[9] = molecular target: T4, recombinant alipidated human ApoE4; experiment: SPR, biotinylated recombinant apoE4 captured on a streptavidin chip; column Apparent KD (M)
Method: as §3, §4

T4 sequence (P02649 19-317 C130R): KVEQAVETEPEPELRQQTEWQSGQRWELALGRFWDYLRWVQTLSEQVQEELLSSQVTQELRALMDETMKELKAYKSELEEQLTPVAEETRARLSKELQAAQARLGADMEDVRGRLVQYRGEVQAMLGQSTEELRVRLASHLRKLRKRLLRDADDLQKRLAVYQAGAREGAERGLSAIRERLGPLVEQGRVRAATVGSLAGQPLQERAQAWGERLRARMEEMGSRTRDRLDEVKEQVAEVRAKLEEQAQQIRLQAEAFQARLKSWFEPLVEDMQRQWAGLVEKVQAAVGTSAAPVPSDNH
T5 sequence (P02649 19-317): as the sequence (P02649 19-317 C130R) above, with R112C counted along it
T6 sequence (P02649 19-317): as the sequence (P02649 19-317 C130R) above, with R112C counted along it

EC50 (read off the curve) [1]	EC50 [2]	EC50 [3]	EC50 (read off the curve) [4]	binding result [5]	binding result [6]	koff [7]	kon [8]	Kd [9]	Binder
~0.3 nM	0.26 nM	0.24 nM	0.16 to 0.2 nM	binds	binds	–	–	–	HJ154 (antibody, V domains shown, murine monoclonal antibody from hybridoma; also called HJ154B (biotinylated)) VH: QVQLQQPGTEFVMSGASVMLSCKASGYIFTNYWLHWVKQRPGHGLEWIGEIDPSDSYSICNDNFKGKSTLTVDKSSSTAYMQLSSLTSEDSAVYYCAGSLGRVGLAYWGQGTLVTVST VL: QIVLTQSPAIMSASPGEKVTMSCSASSSVSNMYWYQQKPGSSPKSWIYRTSNLASGVPARFSGSGSGTSYSLTISNMEAEDAATYYCQHYQNYPLTFGAGTKLELKR
~0.3 nM	0.44 nM	–	–	binds	binds	0.00119 s⁻¹	19700 M⁻¹ s⁻¹	60.2 nM	HJ151 (antibody, V domains shown, murine monoclonal antibody from hybridoma; also called HJ151B (biotinylated)) VH: QVQLQQSGAELVRPGASVTLSCKASGYTFTDYEMHWVKQTPVHGLEWIGVIDPEKGGTAYNQKFKGKAILTADKSSSTAYMDLRSLTSEDSAVYYCLKDSWGQGTTLTVSS VL: DVLMTQTPLSLPVSLGDQASISCRSSQTIVHSDGNTYLEWYLQKPGQSPKLLIYKVSNRFSGVPDRFSGSGSGTYFTLKISRVEAEDLGVYYCFQGSHVPCTFGGGTKLEIKR
~0.07 nM	0.62 nM	1.69 nM	~0.09 nM	–	–	0.00523 s⁻¹	26400 M⁻¹ s⁻¹	198 nM	HJ156 (antibody, V domains shown, murine monoclonal antibody from hybridoma; also called HJ156B (biotinylated)) VH: QVQLQQSGPELVKPGASVKISCKASGYIFTDYYINWVKRRPGQGLEWIGWIFPGSGVSYYNEQFKGKATLTVDKPSNTAYIFLSRLTSEDSAVYFCARYYSSSPFAYWGQGTLVTVSA VL: DVLMTQTPLSLPVSLGDQASISCRSSQNIIHSNGNTYLEWFLQRPGQSPELLIYKVSNRFSGVPDRFSGSGSGTDFTLKISRVEAEDLGVYYCFQGSHVPYTFGGGTKLEIKR
